Test results: paper PMC6399465

Target: biotinylated IRF3-Flag (UniProt Q14653)
Experiment: BLI; Forte-Bio Octet Red; 10 ug/ml biotinylated IRF3-Flag coupled to biosensors, immersed in ICP27-Flag (50, 200, 500 or 800 nM); proteins in PBS

Sequence of UniProt Q14653 (Q14653 whole entry): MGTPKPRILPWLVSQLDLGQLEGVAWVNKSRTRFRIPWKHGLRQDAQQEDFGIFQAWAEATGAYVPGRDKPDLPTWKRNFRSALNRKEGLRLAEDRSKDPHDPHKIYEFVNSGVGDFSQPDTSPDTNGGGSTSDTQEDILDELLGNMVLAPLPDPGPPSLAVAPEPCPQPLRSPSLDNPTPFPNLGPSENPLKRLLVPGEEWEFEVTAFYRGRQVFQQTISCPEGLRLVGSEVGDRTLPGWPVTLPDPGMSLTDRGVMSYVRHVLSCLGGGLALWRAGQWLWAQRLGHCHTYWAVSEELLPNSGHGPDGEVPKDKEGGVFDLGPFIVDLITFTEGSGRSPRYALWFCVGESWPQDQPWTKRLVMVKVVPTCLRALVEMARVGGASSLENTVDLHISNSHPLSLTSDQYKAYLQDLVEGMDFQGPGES

ICP27-Flag (purified from HEK 293F) (from UniProt P28276 1-512) (natural protein)
Kd: 20.3 nM
